Patent US20080299132A1, “Synergistic compositions for treating HIV-1” (Roche Palo Alto LLC, priority 2006, published 2008)

Experiments:
[1] = molecular target: T1, CCR5 (Homo sapiens, UniProt P51681); settings: cited from earlier work
[2] = molecular target: T1, CCR5; experiment: Drug interaction (synergy) analysis of two-drug combinations in the CCF assay (Greco and Prichard models); assay type: cell-based; set-up: host or cells: CEM-NKr-CCR5-Luc
Description: For the in vitro cell-cell fusion studies, the possibility of either enhanced (synergy) or reduced (antagonism) efficacy of CCR5 antibodies in combination with CCR5 antagonists was considered.
The concentration response surface approach described by Greco et al. (Cancer Res. 1990 50:5318-5327) was used to analyze the data. A seven-parameter non-linear model (i) was fit to all experimental data including percent inhibitions calculated from replicates for all concentrations of the two drugs alone and in combination from two 384-well plates. […]
Loewe additivity or no interaction is indicated when the 95% confidence interval of a includes 0. Furthermore, the predicted additivity of the drugs combined was calculated by using all estimated parameters of the Greco model, except a that is fixed at 0. […]
Theoretical additive interactions were calculated from the dose response curves of the individual drugs based on the Bliss Independence equation. […]
The total sum of differences between the observed percent inhibitions and the upper bound of 95% confidence interval of predicted additive percentages is calculated as a statistically significant synergy volume ΣSYN. The total sum of differences between the observed percent inhibitions and the lower bound of 95% confidence interval of predicted additive percentages is calculated as a statistically significant antagonism volume ΣANT. […]

[3] = molecular target: T1, CCR5; experiment: 3H-MVC binding to CHO-CCR5 cells after pre-incubation with CCR5 mAbs; settings: CHO-CCR5 cells preincubated with 30 μg/mL mAb, 26 nM 3H-MVC
Procedure: The cells (2×10^5/100 μL) were pre-incubated with 30 μg/mL of CCR5 mAbs or PBS at RT for 1 h, then incubated with 26 nM of ^3H-MVC. At the end of various time points, cells were washed and the membrane bound ^3H-MVC was measured as described in Example 2. The maximal counts from the control samples were set as 100% binding and the relative binding for all other samples were calculated and the time course curves were generated based on these relative binding at each time point.
(§1) The potential for synergism should be maximized when both the antibody and the low molecular weight antagonist (or fusion or attachment inhibitor) can bind independently to the CCR5 receptor.

[4] = molecular target: T1, CCR5; experiment: CCR5 mAb binding to CHO-CCR5 cells after pre-incubation with CCR5 antagonists (FACS); settings: pre-incubation with 50 nM MVC, AK602 or SCH-D, RT 1 h
Description: FIG. 4—The graph illustrates the effect of CCR5 antagonists on the time course of 5 mAb binding. […] The time course curves for each mAb in the presence of various antagonists were created based on their mean fluorescence intensity (MFI) values.
as §1

T1 sequence (P51681 whole entry): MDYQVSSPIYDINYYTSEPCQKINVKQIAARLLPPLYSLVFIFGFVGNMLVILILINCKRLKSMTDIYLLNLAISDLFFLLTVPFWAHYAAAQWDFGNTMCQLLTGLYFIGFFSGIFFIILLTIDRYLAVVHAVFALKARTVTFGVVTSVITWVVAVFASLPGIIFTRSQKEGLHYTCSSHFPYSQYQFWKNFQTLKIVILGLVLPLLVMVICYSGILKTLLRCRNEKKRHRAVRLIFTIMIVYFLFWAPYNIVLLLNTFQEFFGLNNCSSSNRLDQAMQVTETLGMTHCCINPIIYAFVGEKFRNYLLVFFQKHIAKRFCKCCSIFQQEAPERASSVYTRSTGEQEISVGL

Question: Which “effect on the binding of mAb 45523, in words” value [1] does the source give for `CCCCN1C(=O)[C@@H]([C@H](O)C2CCCCC2)NC(=O)C12CCN(Cc1ccc(Oc3ccc(C(=O)O)cc3)cc1)CC2` [AK602, reference compound] here?
Answer: completely blocked

Question: And the “drug interaction in words (synergy / antagonism)” value ([2]; combination in cell-cell fusion assay)?
Answer: highest synergy

B1: RoAb13: mouse anti-human CCR5 monoclonal antibody (Roche), binds the N-terminal end of CCR5 (antibody, V domains shown)
VH: EVKLVESGGGLVKPGGSLKLSCAASGFTFSTYAMSWVRQTPEKRLEWVASISTGDNTYYTDSVRGRFTISRDNARNILYLQMSSLRSEDTAMYFCTRGRGDRGDLFGYWGQGTLVTVSS
VL: DIVMSQSPSSLAVSVGEKVTMSCKSSQSLLYRGNQMNYLAWYQQKPGQSPKLLIYWASTRESGVPDRFTGSGSGTEFTLTISSVKAEDLTVYYCQQYYTYPRTFGGGTKLEIKR
Question: What does the source list for B1?
Answer: effect on MVC binding, in words [3]: no effect; mAb binding to CHO-CCR5 cells, effect of CCR5 antagonists, in words [4]: unaffected; higher synergy than ROAb14 when combined with MVC ([2]; combination with MVC): approximately 60%
